Data as given in patent US20030129189A1, “Tumor necrosis factor-gamma” (priority 1994, published 2003).

B1: FLAG-tagged soluble TNF-gamma-beta (aa 72-251) (ligand)
chain: LKGQEFAPSHQQVYAPLRADGDKPRAHLTVVRQTPTQHFKNQFPALHWEHELGLAFTKNRMNYTNKFLLIPESGDYFIYSQVTFRGMTSECSEIRQAGRPNKPDSITVVITKVTDSYPEPTQLLMGTKSVCEVGSNWFQPIYLGAMFSLQEGDKLMVNVSDISLVDYTKEDKTFFGAFLL
notes: also called FLAG-TL1β; FLAG-TNF-gamma-beta; not shown: The N-terminal FLAG tag (pFLAG-CMV-1 vector) and any vector linker

Assays:
[1] = test system: MC-38 murine colon cancer; assay: In vivo tumorigenicity assay, syngeneic MC-38 colon cancer; design: species or system C57BL6/6 mice; conditions: local production by transfected MCA 38 cells, 1×10^6 cells/mouse
Method: [The full-length TNF-gamma and extracellular domain of DR3 was cloned into pcDNA3 expression vector and transfected to MCA 38 cells, respectively. After selection and cloning, three clones from each constructs were picked for tumorigenicity study. MCA 38 cells (1×10^6 cells/mouse) expressing TNF-gamma or DR3 extracellular domain were injected into C57BL6/6 mice. The tumor size was assessed by measuring perpendicular diameters with a caliper and calculated by multiplying the measurements of diameters in two dimensions. Data are represented as the mean +/−SD of 6 mice in each group.] It is clear that most immune cells and cancer cells can express more than one TNF receptor (even more than one death receptor) and ligand superfamily member. […] Moreover, the expression of these ligands and receptors may differ at the level of individual cell types within tissues and the expression level on the same cell type may also differ.
The full length TNF-gamma and extracellular domain of DR3 was cloned into pcDNA3 expression vector (Invitrogen, Carlsbad, Calif.) and transfected to MCA 38 cells, respectively. […] Mice then were randomized and tumors were measured twice weekly. The tumor size was assessed by measuring perpendicular diameters with a caliper and calculated by multiplying the measurements of diameters in two dimensions. […]

[2] = target: T1, 4-1BB on transiently transfected cells (UniProt Q07011 24-255); assay: flow cytometry on transiently transfected cells
T1 construct: whole, on cells
T1 sequence (Q07011 24-255): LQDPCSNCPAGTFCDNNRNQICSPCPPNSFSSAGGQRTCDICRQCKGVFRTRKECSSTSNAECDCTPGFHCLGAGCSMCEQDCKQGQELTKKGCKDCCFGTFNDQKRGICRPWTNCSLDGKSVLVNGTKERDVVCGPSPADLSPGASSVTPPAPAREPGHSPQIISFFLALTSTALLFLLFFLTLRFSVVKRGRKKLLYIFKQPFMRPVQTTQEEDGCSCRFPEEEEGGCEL
Method: (§1) One million cells, in 0.1 ml of FACS buffer (PBS, 0.1% BSA, 0.1% NaN₃), were incubated with 0.1-1 microgram of protein or antibody at RT for 15 min. The cells were washed with 3 ml of FACS buffer, reacted with biotinylated primary antibody, and stained with PE-conjugated secondary antibody at RT for 15 min. Cells were then washed again, resuspended in 0.5 microgram/ml of propidium iodide, and live cells were gated and analyzed on a FACScan using the CellQuest software (BD Biosciences).

[3] = target: T2, CD27 on transiently transfected cells (UniProt P26842 20-260, limits assumed); assay: flow cytometry on transiently transfected cells
T2 construct: whole, on cells
T2 sequence (looked up): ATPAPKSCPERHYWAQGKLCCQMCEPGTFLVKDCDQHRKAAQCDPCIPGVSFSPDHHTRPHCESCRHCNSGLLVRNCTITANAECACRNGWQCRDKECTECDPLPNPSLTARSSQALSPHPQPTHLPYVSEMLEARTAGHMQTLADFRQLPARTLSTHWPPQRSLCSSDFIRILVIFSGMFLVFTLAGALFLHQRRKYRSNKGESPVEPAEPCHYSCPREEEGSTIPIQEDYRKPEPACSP
Method: as §1

[4] = target: T3, CD30 on transiently transfected cells (UniProt P28908 19-595, limits assumed); assay: flow cytometry on transiently transfected cells
T3 construct: whole, on cells
T3 sequence (looked up): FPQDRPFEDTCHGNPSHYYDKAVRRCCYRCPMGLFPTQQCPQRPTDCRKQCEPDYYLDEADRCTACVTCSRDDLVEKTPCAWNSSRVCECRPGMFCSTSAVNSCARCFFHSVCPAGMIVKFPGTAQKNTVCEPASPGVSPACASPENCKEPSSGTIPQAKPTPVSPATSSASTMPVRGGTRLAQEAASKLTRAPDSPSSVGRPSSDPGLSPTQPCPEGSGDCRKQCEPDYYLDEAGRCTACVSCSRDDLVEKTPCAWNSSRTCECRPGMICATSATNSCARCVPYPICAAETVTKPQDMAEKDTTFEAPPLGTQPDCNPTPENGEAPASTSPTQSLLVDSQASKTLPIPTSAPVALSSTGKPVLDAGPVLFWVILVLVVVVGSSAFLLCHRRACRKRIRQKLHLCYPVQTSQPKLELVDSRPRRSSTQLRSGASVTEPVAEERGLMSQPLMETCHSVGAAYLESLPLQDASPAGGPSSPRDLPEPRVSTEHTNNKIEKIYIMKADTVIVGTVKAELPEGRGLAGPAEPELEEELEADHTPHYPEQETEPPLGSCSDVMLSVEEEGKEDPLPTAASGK
Method: as §1

[5] = target: T4, DR5 on transiently transfected cells (UniProt O14763 56-440, limits assumed); assay: flow cytometry on transiently transfected cells
T4 construct: whole, on cells
Method: as §1

[6] = target: T5, DcR2 on transiently transfected cells (UniProt Q9UBN6 56-386, limits assumed); assay: flow cytometry on transiently transfected cells
T5 construct: whole, on cells
T5 sequence (looked up): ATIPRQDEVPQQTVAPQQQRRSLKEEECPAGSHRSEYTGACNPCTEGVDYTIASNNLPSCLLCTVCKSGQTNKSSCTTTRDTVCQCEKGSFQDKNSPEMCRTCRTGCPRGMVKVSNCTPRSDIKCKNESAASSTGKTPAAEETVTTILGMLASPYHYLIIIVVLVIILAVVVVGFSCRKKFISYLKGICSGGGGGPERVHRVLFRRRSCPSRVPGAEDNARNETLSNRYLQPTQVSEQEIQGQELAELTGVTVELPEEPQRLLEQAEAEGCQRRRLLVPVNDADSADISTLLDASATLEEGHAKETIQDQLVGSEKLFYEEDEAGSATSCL
Method: as §1

[7] = target: T6, RANK on transiently transfected cells (UniProt Q9Y6Q6 30-616, limits assumed); assay: flow cytometry on transiently transfected cells
T6 construct: whole, on cells
T6 sequence (looked up): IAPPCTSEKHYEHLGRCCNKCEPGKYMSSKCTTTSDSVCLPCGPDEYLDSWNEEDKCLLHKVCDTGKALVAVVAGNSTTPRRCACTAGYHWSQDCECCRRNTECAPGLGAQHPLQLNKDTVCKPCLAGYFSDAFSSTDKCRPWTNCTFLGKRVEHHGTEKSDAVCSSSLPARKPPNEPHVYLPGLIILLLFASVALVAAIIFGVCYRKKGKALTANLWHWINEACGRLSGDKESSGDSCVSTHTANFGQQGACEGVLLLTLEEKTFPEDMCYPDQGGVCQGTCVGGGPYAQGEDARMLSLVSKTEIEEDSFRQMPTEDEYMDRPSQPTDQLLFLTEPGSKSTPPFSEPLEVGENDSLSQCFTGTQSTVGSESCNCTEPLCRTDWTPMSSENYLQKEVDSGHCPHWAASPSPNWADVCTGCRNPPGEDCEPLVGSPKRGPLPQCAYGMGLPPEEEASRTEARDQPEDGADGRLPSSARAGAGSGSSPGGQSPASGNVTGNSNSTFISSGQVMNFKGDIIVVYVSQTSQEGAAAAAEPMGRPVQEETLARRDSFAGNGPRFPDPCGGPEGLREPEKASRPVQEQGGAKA
Method: as §1

Molecule | tumor growth [1] | binding result [2] | binding result [3] | binding result [4] | binding result [5] | binding result [6] | binding result [7]
TNF-gamma: new member of the tumor necrosis factor family; the term refers to TNF-gamma-alpha and/or TNF-gamma-beta | caused complete tumor suppression | – | – | – | – | – | –
B1 | – | no binding | no binding | no binding | no binding | no binding | no binding
